This is an account of results in article PMC7240154.

Common to all, as to test: ITC; Vps4 MIT domain (3 uM in PBS) in the cell, titrated with 19 injections of 10 ul of Vps2/24/46 or Vps20/32/60 (33 uM in PBS) at 2-min intervals; 25°C; ITC200; fits: One Set of Sites or Sequential Binding Sites
(Isothermal titration calorimetry measures the heat released or taken up as one component is titrated into another.)

Assay [1] concerns the target Heimdallarchaeota_LC_3 Vps4 MIT domain (Heimdallarchaeota_LC_3).
Assay [2] addresses Lokiarchaeum_GC14_75 Vps4 MIT domain (Lokiarchaeum_GC14_75).
Assay [3] deals with Odinarchaeota_LCB_4 Vps4 MIT domain (Odinarchaeota_LCB_4).

For the substance “Heimdallarchaeota_LC_3 Vps2/24/46 (natural protein)”, in assay [1], the dH1 (Sequential Binding Sites, site 1) is -473 kcal/mol and the dH2 (Sequential Binding Sites, site 2) was found to be 931 kcal/mol.
As for “Heimdallarchaeota_LC_3 Vps20/32/60 (natural protein)”, in assay [1], the dH1 (Sequential Binding Sites, site 1) was found to be 2780 kcal/mol and the dH2 (Sequential Binding Sites, site 2) is -2310 kcal/mol.
In assay [2], “Lokiarchaeum_GC14_75 Vps2/24/46 (natural protein)” gave a dH1 (Sequential Binding Sites, site 1) of -121 kcal/mol and a dH2 (Sequential Binding Sites, site 2) of 422 kcal/mol.
In the case of “Lokiarchaeum_GC14_75 Vps20/32/60 (natural protein)”, in assay [2], the dH was 1420 kcal/mol.
In assay [3], “Odinarchaeota_LCB_4 Vps2/24/46 (natural protein)” registered a dH of 392 kcal/mol.
Same read-out and setting: next, “Odinarchaeota_LCB_4 Vps20/32/60 (natural protein)”: 331 kcal/mol.
